According to patent US20240158494A1 (Biogen, published 2024):

What was measured:
[1] = target: T1, recombinant cynomolgus monkey TfR1 extracellular domain, His-tagged (cynomolgus monkey, UniProt Q5RDH6 87-760 (Pongo abelii entry)); assay: SPR, TfR1 ECD-His captured, Fab injected, 1:1 fit
T1 construct: also called Cyno TfR1 ECD; cyno TfR1 ECD-His

[2] = target: T2, recombinant human TfR1 extracellular domain, His-tagged (human, UniProt P02786 89-760); assay: SPR, TfR1 ECD-His captured, Fab injected, 1:1 fit
T2 construct: also called Human TfR1 ECD; human TfR1 ECD-His

[3] = target: T3, cynomolgus monkey transferrin receptor 1 (TfR1), full length, expressed on cells (cynomolgus monkey, UniProt Q5RDH6 1-760 (Pongo abelii entry)); assay: FACS on Ba/F3 cells, Fab supernatant
T3 construct: also called cyno TfR1; cyTfR

[4] = target: T4, human transferrin receptor 1 (TfR1), full length, expressed on cells (human, UniProt P02786 1-760); assay: FACS on Ba/F3 cells, Fab supernatant
T4 construct: also called human TfR1; huTfR

[5] = target: T3, cynomolgus monkey transferrin receptor …; assay: FACS on Ba/F3 cells, Fab supernatant; remark: listed apart in the source
[6] = target: T4, human transferrin receptor 1 (TfR1), …; assay: FACS on Ba/F3 cells, Fab supernatant; remark: listed apart in the source
[7] = target: T3, cynomolgus monkey transferrin receptor …; assay: FACS on Ba/F3 cells, purified Fab
[8] = target: T4, human transferrin receptor 1 (TfR1), …; assay: FACS on Ba/F3 cells, purified Fab
[9] = target: T3, cynomolgus monkey transferrin receptor …; assay: FACS on Ba/F3 cells, Fab supernatant; remark: listed apart in the source
[10] = target: T4, human transferrin receptor 1 (TfR1), …; assay: FACS on Ba/F3 cells, Fab supernatant; remark: listed apart in the source
[11] = target: T3, cynomolgus monkey transferrin receptor …; assay: FACS on Ba/F3 cells, purified Fab; remark: listed apart in the source
[12] = target: T4, human transferrin receptor 1 (TfR1), …; assay: FACS on Ba/F3 cells, purified Fab; remark: listed apart in the source
[13] = target: T3, cynomolgus monkey transferrin receptor …; assay: FACS on Ba/F3 cells, Fab supernatant; remark: listed apart in the source
[14] = target: T4, human transferrin receptor 1 (TfR1), …; assay: FACS on Ba/F3 cells, Fab supernatant; remark: listed apart in the source
[15] = target: T1, recombinant cynomolgus monkey TfR1 …; assay: SPR, TfR1 ECD-His captured, in the presence of 1 mM holo human transferrin
[16] = target: T2, recombinant human TfR1 extracellular …; assay: as above
[17] = target: T1, recombinant cynomolgus monkey TfR1 …; assay: SPR, TfR1 ECD-His captured, Fab 50 and 500 nM, no transferrin
[18] = target: T2, recombinant human TfR1 extracellular …; assay: as above

Binder | Kd [1] | koff [1] | kon [1] | Kd [2] | koff [2] | kon [2] | EC50 [5] | EC50 [6] | EC50 [7] | EC50 [8] | EC50 [9] | EC50 [10] | EC50 [11] | EC50 [12] | other results
TfR1 ANTIBODY-B HC-H4C hIgG1 Fab′(1C)/LC-L2 hKappa (Fab, V domains shown, also called ANTIBODY-B H4C/L2; exemplary construct (v)) VH: QSLVESGGGVVQPGRSLRLSCKASGFSFSNSYWICWVRQAPGKGLEWVGCINTDADSTNYASWARGRFTISKTSSTTVYLQMNSLRAEDTAVYYCARQNNVFDPGYNLWGPGTLVTVSS VL: ELVLTQSPSTLSASVGDRVTITCRASQNIGSNLAWYQQKPGKAPKLLIYDASKLESGVPSRFSGSGSGTEFTLTISSLQPDDFATYYCQCTVRGGAYGNAFGGGTKVEIKR | 0.7 nM | 0.000279 s⁻¹ | 398000 M⁻¹ s⁻¹ | 3.4 nM | 0.000767 s⁻¹ | 223000 M⁻¹ s⁻¹ | 2.9 nM | 4.7 nM | 2 nM | 4.8 nM |  |  |  |  | EC50 [3]: 1.9 nM; EC50 [4]: 5.4 nM
TfR1 ANTIBODY-B HC-H2C hIgG1 Fab′(1C)/LC-L2 hKappa (Fab, V domains shown, also called ANTIBODY-B H2C/L2) VH: QSLVESGGGVVQPGRSLRLSCKASGFSFSNSYWICWVRQAPGKGLEWVGCINTDADSTNYADSVKGRFTISKDSSTTVYLQMNSLRAEDTAVYYCARQNNVFDPGYNLWGQGTLVTVSS VL: ELVLTQSPSTLSASVGDRVTITCRASQNIGSNLAWYQQKPGKAPKLLIYDASKLESGVPSRFSGSGSGTEFTLTISSLQPDDFATYYCQCTVRGGAYGNAFGGGTKVEIKR | 1.1 nM | 0.000472 s⁻¹ | 445000 M⁻¹ s⁻¹ | 5.8 nM | 0.000999 s⁻¹ | 170000 M⁻¹ s⁻¹ | 2.2 nM | 3.3 nM | 2.6 nM | 6.5 nM |  |  |  |  | 
TfR1 ANTIBODY-B HC-H4 hIgG1 Fab′(1C)/LC-L2 hKappa (Fab, V domains shown, also called ANTIBODY-B H4/L2) VH: QSLVESGGGVVQPGRSLRLSCKASGFSFSNSYWIAWVRQAPGKGLEWVAAINTDADSTNYASWARGRFTISKTSSTTVYLQMNSLRAEDTAVYYCARQNNVFDPGYNLWGPGTLVTVSS VL: ELVLTQSPSTLSASVGDRVTITCRASQNIGSNLAWYQQKPGKAPKLLIYDASKLESGVPSRFSGSGSGTEFTLTISSLQPDDFATYYCQCTVRGGAYGNAFGGGTKVEIKR | 2.2 nM | 0.000508 s⁻¹ | 228000 M⁻¹ s⁻¹ | 11.6 nM | 0.00155 s⁻¹ | 134000 M⁻¹ s⁻¹ | 4.6 nM | 2.3 nM | 3.4 nM | 9.8 nM |  |  |  |  | 
TfR1 ANTIBODY-A HC-H4C hIgG1 Fab′(1C)/LC-L1 hKappa (Fab, V domains shown, also called ANTIBODY-A H4C/L1) VH: QSLVESGGGLVQPGGSLRLSCKASGIDFSSSGYMCWVRQAPGKGLEWVGCIYTYSSNTYYASWAKGRFTISKTSSTTVYLQMNSLKTEDTAVYYCARGTYGYTGYTYTMGYFSLWGPGTLVTVSS VL: DIQMTQSPSTLSASVGDRVTITCQASQNINSYLAWYQQKPGKAPKLLIYRASTLASGVPSRFSGSGSGTEFTLTISSLQPDDFATYYCQSYYYSGSSNYNAFGGGTKVEIKR | 2.6 nM | 0.0114 s⁻¹ | 4.4e+06 M⁻¹ s⁻¹ | 0.91 nM | 0.000894 s⁻¹ | 983000 M⁻¹ s⁻¹ |  |  |  |  | 1.8 nM | 2.2 nM | 2.4 nM | 1.8 nM | 
TfR1 ANTIBODY-A HC-H4C hIgG1 Fab′(1C)/LC-L0 hKappa (Fab, V domains shown, also called ANTIBODY-A H4C/L0) VH: QSLVESGGGLVQPGGSLRLSCKASGIDFSSSGYMCWVRQAPGKGLEWVGCIYTYSSNTYYASWAKGRFTISKTSSTTVYLQMNSLKTEDTAVYYCARGTYGYTGYTYTMGYFSLWGPGTLVTVSS VL: DIQMTQSPSTLSASVGDRVTITCQASQNINSYLAWYQQKPGKAPKLLIYRASSLESGVPSRFSGSGSGTEFTLTISSLQPDDFATYYCQSYYYSGSSNYNAFGGGTKVEIKR | 3.3 nM | 0.00583 s⁻¹ | 1.75e+06 M⁻¹ s⁻¹ | 0.99 nM | 0.000878 s⁻¹ | 887000 M⁻¹ s⁻¹ |  |  |  |  | 1.8 nM | 1.4 nM | 2 nM | 1.4 nM | 
TfR1 ANTIBODY-A HC-H2C hIgG1 Fab′(1C)/LC-L1 hKappa (Fab, V domains shown, also called ANTIBODY-A H2C/L1) VH: QSLVESGGGLVQPGGSLRLSCAASGIDFSSSGYMCWVRQAPGKGLEWVGCIYTYSSNTYYAASVKGRFTISKTSSTTVYLQMNSLKTEDTAVYYCARGTYGYTGYTYTMGYFSLWGQGTLVTVSS VL: DIQMTQSPSTLSASVGDRVTITCQASQNINSYLAWYQQKPGKAPKLLIYRASTLASGVPSRFSGSGSGTEFTLTISSLQPDDFATYYCQSYYYSGSSNYNAFGGGTKVEIKR | 3 nM | 0.0195 s⁻¹ | 6.56e+06 M⁻¹ s⁻¹ | 1.2 nM | 0.000947 s⁻¹ | 773000 M⁻¹ s⁻¹ |  |  |  |  | 3.3 nM | 2.6 nM | 3.3 nM | 1.3 nM | 
TfR1 ANTIBODY-A HC-H3C hIgG1 Fab′(1C)/LC-L0 hKappa (Fab, V domains shown, also called ANTIBODY-A H3C/L0; TfRANTIBODY-A HC-H3C hIgG1Fab′(1C)/LC-L0 hKappa) VH: QSLVESGGGLVQPGGSLRLSCKASGIDFSSSGYMCWVRQAPGKGLEWVGCIYTYSSNTYYASWAKGRFTISKDSKNSVYLQMNSLKTEDTAVYYCARGTYGYTGYTYTMGYFSLWGPGTLVTVSS VL: DIQMTQSPSTLSASVGDRVTITCQASQNINSYLAWYQQKPGKAPKLLIYRASSLESGVPSRFSGSGSGTEFTLTISSLQPDDFATYYCQSYYYSGSSNYNAFGGGTKVEIKR | 2.5 nM | 0.0103 s⁻¹ | 4.1e+06 M⁻¹ s⁻¹ | 1.4 nM | 0.0012 s⁻¹ | 835000 M⁻¹ s⁻¹ |  |  |  |  | 2.7 nM | 2.5 nM | 5 nM | 1.6 nM | EC50 [13]: 1.5 nM; EC50 [14]: 1.1 nM
TfR1 ANTIBODY-A HC-H3C hIgG1 Fab′(1C)/LC-L1 hKappa (Fab, V domains shown, also called ANTIBODY-A H3C/L1) VH: QSLVESGGGLVQPGGSLRLSCKASGIDFSSSGYMCWVRQAPGKGLEWVGCIYTYSSNTYYASWAKGRFTISKDSKNSVYLQMNSLKTEDTAVYYCARGTYGYTGYTYTMGYFSLWGPGTLVTVSS VL: DIQMTQSPSTLSASVGDRVTITCQASQNINSYLAWYQQKPGKAPKLLIYRASTLASGVPSRFSGSGSGTEFTLTISSLQPDDFATYYCQSYYYSGSSNYNAFGGGTKVEIKR | 4.1 nM | 0.0106 s⁻¹ | 2.58e+06 M⁻¹ s⁻¹ | 1.2 nM | 0.00126 s⁻¹ | 1.02e+06 M⁻¹ s⁻¹ |  |  |  |  | 4.5 nM | 2.1 nM | 5.5 nM | 1.5 nM | 
Rabbit ANTIBODY-B chi Fab (Fab, V domains shown, chimeric Fab, rabbit variable regions; constant regions of the Fab not specified (chimeric antibodies were made with a human IgG1 framework); also called chimeric rabbit Fab fragment of RabANTIBODY-B) VH: QSLEESGGGLVQPEGSLTLTCKASGFSFSNSYWICWVRQAPGKGLEWIGCINTDADSTNYASWARGRFTISKTSSTTVTLQMTSLTAADTASYFCARQNNVFDPGYNLWGPGTLVTVSS VL: ELVLTQTPASVSEAVGGTVTIKCQASQNIGSNLAWYQQKPGQPPKLLIYDASKLASGVPSRFSGSGSGTEFTLTISDLECADAATYYCQCTVRGGAYGNAFGGGTEVVVK | 1.5 nM | 0.000436 s⁻¹ | 283000 M⁻¹ s⁻¹ | 5.8 nM | 0.000573 s⁻¹ | 99200 M⁻¹ s⁻¹ |  |  |  |  |  |  |  |  | Kd [15]: 3.5 nM; koff [15]: 0.00094 s⁻¹; kon [15]: 270000 M⁻¹ s⁻¹; Kd [16]: 8.2 nM; koff [16]: 0.0015 s⁻¹; kon [16]: 180000 M⁻¹ s⁻¹; Kd [17]: 3.8 nM; koff [17]: 0.00095 s⁻¹; kon [17]: 250000 M⁻¹ s⁻¹; Kd [18]: 12 nM; koff [18]: 0.0018 s⁻¹; kon [18]: 140000 M⁻¹ s⁻¹
Rabbit ANTIBODY-A chi Fab (Fab, V domains shown, chimeric Fab, rabbit variable regions; constant regions of the Fab not specified (chimeric antibodies were made with a human IgG1 framework); also called chimeric rabbit Fab fragment of RabANTIBODY-A) VH: QSLEESGGGLVQPGASLTLTCKASGIDFSSSGYMCWVRQAPGKGLEWIGCIYTYSSNTYYASWAKGRFTISKTSSTTVTLQMTSLTAADTATYFCARGTYGYTGYTYTMGYFSLWGPGTLVTVSS VL: ELDMTQTPASVEAAVGGTVTIKCQASQNINSYLAWYQQKPGQPPKLLIYRASTLASGVPSRFKGSGSGTEFTLTISDLECADAATYYCQSYYYSGSSNYNAFGGGTELEIL | 29 nM | 0.00925 s⁻¹ | 317000 M⁻¹ s⁻¹ | 5.2 nM | 0.00101 s⁻¹ | 192000 M⁻¹ s⁻¹ |  |  |  |  |  |  |  |  | Kd [15]: 43 nM; koff [15]: 0.01 s⁻¹; kon [15]: 230000 M⁻¹ s⁻¹; Kd [16]: 6.8 nM; koff [16]: 0.0012 s⁻¹; kon [16]: 170000 M⁻¹ s⁻¹; Kd [17]: 43 nM; koff [17]: 0.01 s⁻¹; kon [17]: 230000 M⁻¹ s⁻¹; Kd [18]: 7 nM; koff [18]: 0.0012 s⁻¹; kon [18]: 170000 M⁻¹ s⁻¹
